This passage reports EC50, binding result and Kd results from patent US20260062488A1 (AbbVie / Abbott, published 2026).

Experiment [1] deals with T1, cynomolgus α4β7 integrin (cynomolgus monkey).
T1 construct: whole, on cells; On CHOK1-cα4β7 cells or cynomolgus blood lymphocytes; also called cα4β7; cyno α4β7
The experiment in a line: FACS, cyno CD4+ total. (In general: In flow cytometry, cells or beads pass a laser one at a time.)

Experiment [2] addresses T2, human FcγRIIc on CHO-K1 cells (human, UniProt P31995 43-323).
T2 construct: whole, on cells
T2 sequence (looked up): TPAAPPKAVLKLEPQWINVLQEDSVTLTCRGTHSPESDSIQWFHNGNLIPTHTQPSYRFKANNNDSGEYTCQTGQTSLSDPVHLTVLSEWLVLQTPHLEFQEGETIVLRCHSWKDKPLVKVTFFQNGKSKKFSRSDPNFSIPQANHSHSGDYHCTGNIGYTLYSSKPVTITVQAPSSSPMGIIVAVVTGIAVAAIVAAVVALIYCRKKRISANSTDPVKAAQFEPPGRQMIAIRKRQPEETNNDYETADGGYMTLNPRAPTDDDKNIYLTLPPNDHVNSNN
Briefly: flow cytometry on CHO-K1 cells expressing the receptor (curve FcgRIIC), monomeric antibody, F(ab')2 anti-human IgG AF647; N=1.

Experiment [3] addresses T1, cynomolgus α4β7 integrin. Briefly: FACS, cyno CD8+ memory T cells.
In experiment [4] the target is T3, cynomolgus FcγRI extracellular domain protein (cynomolgus monkey).
T3 construct: extracellular domain; also called Cyno FcγRI
The experiment in a line: SPR (Biacore T200), FcγR captured, antibody injected. On the technique in general: SPR reads the build-up and loss of mass on a sensor chip optically.

Experiment [5] concerns the target T4, cynomolgus FcγRIII extracellular domain protein (cynomolgus monkey, UniProt Q8SPW2 17-208).
T4 construct: extracellular domain; also called Cyno FcγRIII
The description is as above.

Experiment [6] concerns the target T3, cynomolgus FcγRI extracellular domain …. Briefly: SPR (Biacore), N = 1.
For experiment [7], the target named is T5, cynomolgus FcγRIIa extracellular domain protein (cynomolgus monkey).
T5 construct: extracellular domain; also called Cyno FcγRIIa
The experiment in a line: SPR (Biacore), N = 1.

Experiment [8] concerns the target T6, cynomolgus FcγRIIb extracellular domain protein (cynomolgus monkey).
T6 construct: extracellular domain; also called Cyno FcγRIIb
The experiment in a line: SPR (Biacore), N = 1.

The target of experiment [9] is T4, cynomolgus FcγRIII extracellular domain …. Briefly: SPR (Biacore), N = 1.
The target of experiment [10] is T7, human FcγRIIIa (F158) extracellular domain protein (human, UniProt P08637 17-208).
T7 construct: extracellular domain; also called hFcγRIIIa (F158); FcγRIIIa158F
The experiment in a line: SPR (Biacore T200), His-tagged FcγR captured by anti-His, antibody injected.

In experiment [11] the target is T8, human FcγRI extracellular domain protein (human, UniProt P12314 16-292).
T8 construct: extracellular domain; also called hFcγRI
The description is as above.

The target in experiment [12] is T9, human FcγRIIIa (V158) extracellular domain protein (human, UniProt P08637 17-208).
T9 construct: extracellular domain; also called hFcγRIIIa (V158); FcγRIIIa158V
Described as above.

For experiment [13], the target named is T10, human FcγRIIa (H131) extracellular domain protein (human, UniProt P12318 34-217).
T10 construct: extracellular domain; also called hFcγRIIa (H131); FcγRIIa 131H
T10 sequence (looked up): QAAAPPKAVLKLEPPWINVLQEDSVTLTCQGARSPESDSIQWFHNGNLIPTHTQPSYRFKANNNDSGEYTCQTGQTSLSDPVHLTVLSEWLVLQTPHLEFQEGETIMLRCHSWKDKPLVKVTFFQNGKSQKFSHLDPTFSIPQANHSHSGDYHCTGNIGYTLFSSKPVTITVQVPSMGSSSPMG
The experiment is described as above.

Experiment [14] deals with T11, rabbit α4β7 integrin (rabbit).
T11 construct: whole, on cells; On rabbit PBMCs
Briefly: FACS, rabbit lymphocytes.

The target in experiment [15] is T1, cynomolgus α4β7 integrin. The experiment in a line: FACS, cyno CD8+ total.
Experiment [16] concerns the target T12, FcgRIIA R131 (human, UniProt P12318).
T12 construct: cell surface, on engineered CHO-K1 cells; the list of molecules has only an FcγRIIa on CHO-K1 cells without the variant; also called human FcγRIIa (R131) on CHO-K1 cells
T12 sequence (receptor chain, looked up): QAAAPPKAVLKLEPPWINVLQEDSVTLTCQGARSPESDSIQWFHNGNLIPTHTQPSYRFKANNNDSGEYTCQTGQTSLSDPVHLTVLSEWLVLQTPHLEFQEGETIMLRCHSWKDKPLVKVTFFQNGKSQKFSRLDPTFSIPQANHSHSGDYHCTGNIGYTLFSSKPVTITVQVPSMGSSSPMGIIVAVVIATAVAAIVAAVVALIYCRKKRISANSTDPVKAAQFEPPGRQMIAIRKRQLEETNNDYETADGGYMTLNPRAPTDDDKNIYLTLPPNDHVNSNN
Briefly: flow cytometry on CHO-K1 cells expressing the receptor (curve FcgRIIA R131), monomeric antibody, F(ab')2 anti-human IgG AF647; N=1.

The target in experiment [17] is T1, cynomolgus α4β7 integrin. The experiment in a line: FACS, cyno CD8+ naïve T cells.
The target of experiment [18] is T1, cynomolgus α4β7 integrin. Briefly: FACS, cyno CD4+ total. The source holds these as a separate data set.
For experiment [19], the target named is T1, cynomolgus α4β7 integrin. Briefly: binding, cynomolgus CD8+ memory T cells, summary table.
The target of experiment [20] is T13, human FcγRI on CHO-K1 cells (human, UniProt P12314 16-374).
T13 construct: whole, on cells
Briefly: flow cytometry on CHO-K1 cells expressing the receptor (curve FcgRI), monomeric antibody, F(ab')2 anti-human IgG AF647; N=1.

Experiment [21] concerns the target T1, cynomolgus α4β7 integrin. Briefly: FACS, cyno CD4+ memory.
Experiment [22] concerns the target T1, cynomolgus α4β7 integrin. The experiment in a line: FACS, cyno CD8+ naïve.
The target of experiment [23] is T1, cynomolgus α4β7 integrin. The experiment in a line: FACS, cyno CD4+ memory. This is another data set of the same source.

T4 sequence (Q8SPW2 17-208): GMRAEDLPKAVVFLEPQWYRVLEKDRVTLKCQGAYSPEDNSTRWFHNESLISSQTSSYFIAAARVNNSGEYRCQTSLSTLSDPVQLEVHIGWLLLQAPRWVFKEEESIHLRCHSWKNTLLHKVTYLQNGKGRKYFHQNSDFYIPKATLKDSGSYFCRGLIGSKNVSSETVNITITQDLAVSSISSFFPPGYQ
T7 sequence (P08637 17-208): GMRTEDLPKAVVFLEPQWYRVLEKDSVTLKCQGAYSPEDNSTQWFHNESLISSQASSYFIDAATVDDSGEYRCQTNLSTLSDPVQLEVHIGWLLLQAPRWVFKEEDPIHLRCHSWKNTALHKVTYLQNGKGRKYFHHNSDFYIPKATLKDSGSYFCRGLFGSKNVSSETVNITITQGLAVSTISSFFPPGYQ
T9 sequence (P08637 17-208 F176V limits assumed): as the sequence (P08637 17-208) above, with F160V counted along it
T8 sequence (P12314 16-292): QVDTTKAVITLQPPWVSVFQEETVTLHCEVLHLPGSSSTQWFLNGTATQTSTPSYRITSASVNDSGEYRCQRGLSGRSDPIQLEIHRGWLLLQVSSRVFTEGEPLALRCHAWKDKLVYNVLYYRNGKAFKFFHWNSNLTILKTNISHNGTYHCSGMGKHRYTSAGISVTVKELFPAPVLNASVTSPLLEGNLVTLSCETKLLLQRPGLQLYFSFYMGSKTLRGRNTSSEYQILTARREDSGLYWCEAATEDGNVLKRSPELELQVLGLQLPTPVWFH
T13 sequence (P12314 16-374): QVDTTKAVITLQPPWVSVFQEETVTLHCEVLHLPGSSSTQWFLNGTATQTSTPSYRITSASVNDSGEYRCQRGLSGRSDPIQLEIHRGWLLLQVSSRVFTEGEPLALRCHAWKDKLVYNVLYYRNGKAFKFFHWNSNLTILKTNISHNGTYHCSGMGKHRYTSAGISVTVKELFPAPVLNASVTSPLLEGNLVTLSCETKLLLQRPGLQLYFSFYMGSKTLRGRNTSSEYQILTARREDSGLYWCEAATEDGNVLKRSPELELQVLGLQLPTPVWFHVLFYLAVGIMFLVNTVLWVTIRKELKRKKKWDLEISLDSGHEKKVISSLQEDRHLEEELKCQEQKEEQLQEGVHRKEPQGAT

B1: Ab-h1.9d-WT (antibody, human IgG1, kappa)
heavy: not shown
light: DIQMTQSPSSLSASVGDRVTITCHASQDISDNIGWLQQKPGKSFKLLIYHGTNLEDGVPSRFSGSGSGTDYTLTISSLQPEDFATYYCVQYAQFPWTFGGGTKVEIKRTVAAPSVFIFPPSDEQLKSGTASVVCLLNNFYPREAKVQWKVDNALQSGNSQESVTEQDSKDSTYSLSSTLTLSKADYEKHKVYACEVTHQGLSSPVTKSFNRGEC
notes: IgG1/kappa with D356E and L358M (EU); also called Anti-human α4β7 (AC-166667) hu IgG1/k WT mAb
As usually defined, the EC50 is the concentration at which the effect is half-maximal. Low readings indicate an effect from little substance, high ones a need for much substance. As usually defined, the Kd is the equilibrium constant for the complex coming apart. Low values mean a tighter complex, high ones a looser complex. B1: the EC50 came out at 0.03 nM in experiment [1]; 0.036 nM in [3]; 0.089 nM in [14]; 0.035 nM in experiment [15]; 0.042 nM in [17]; 0.03 nM in [18]. In addition, the concentration giving a half-maximal response (EC50) is 0.036 nM in [19], 0.01 nM in experiment [21], 0.042 nM in experiment [22] and 0.01 nM in [23]. Further, the binding result in experiment [2], in experiment [16] and in experiment [20] was “binds” throughout. Also, the equilibrium dissociation constant (Kd) amounted to 12 nM in experiment [4]; 280 nM in [5]; 1.4 nM in experiment [6]; 8200 nM in experiment [7]; 7100 nM in experiment [8]; 160 nM in experiment [9]. In addition, the Kd is 4600 nM in [10], 16 nM in [11], 480 nM in experiment [12] and 5600 nM in experiment [13].
